The values that follow come from article PMC10748421.

The target in the test is full-length recombinant human BAX (human) (UniProt Q07812). Put plainly: not stated; data not shown; BAX stocks at high concentrations.

One may read the stoichiometry N as the number of molecules, sites or subunits per partner or assembly. As to “full-length recombinant human BAX (from UniProt Q07812 1-192) (natural protein)”, the stoichiometry N was 2.
